Data set [1] concerns toxic myocarditis caused by Adriamycin in rat. Briefly: Serum troponin T (cTnT) level, Adriamycin rat model. It counts as in vivo, SD rat. The settings on record: Adriamycin 3.3 mg/kg iv once every week × 4, 5 weeks later. Here is the method: 2 ml of arterial blood was withdrawn, serum extracted, frozen and stored at −20° C., determination of serum cTnT content was performed with electrochemistry irradiate method submitted to be carried out by Clinical Laboratory of Zhong Shan Hospital.

For data set [2] the test system is unchanged. Put plainly: Survival rate, Adriamycin caused toxic myocarditis rat model. It counts as in vivo, SD rat. The settings on record: Adriamycin 3.3 mg/kg iv once every week × 4, 5 weeks later. As for the experimental part:
rhNRG-1β was injected into the tail vein within 24 hours after the first injection of Adriamycin, the injection of rhNRG-1 β was carried out once daily for 10 days. Dosage was adjusted according to the body weight, volume of the drug administered was 0.2 ml/100 g.
Based on the <<Guidance Principle of New Drug Preclinical Experiment>>, 3.3 mg/kg of Adriamycin was injected into the tail vein, once per week for consecutive 4 injections, establishing Adriamycin caused toxic myocarditis rat model.
(§1) rhNRG-1 β was injected into the tail vein within 24 hours after the first injection of Adriamycin. During the experiment, animal survival was dynamically monitored, heart function indexes (maximal rate of pressure increase within left ventricle, […], maximal rate of pressure decrease within left ventricle, −dp/dt, systolic end pressure of left ventricle LVPmax, diastolic end pressure of left ventricle LVPmin) were monitored at the 5th week. Section was made from the heart tissue and pathological changes examined.
Situation of survival was recorded weekly and the survival rate of the various experimental groups was calculated. Survival rate (%)=survival animal number/number of experimental animals×100.

The test system is the same in data set [3]. Put plainly: Myocardial pathologic scoring, Adriamycin rat model. Type of data set: in vivo, SD rat. The settings on record: Adriamycin 3.3 mg/kg iv weekly × 4, 5 weeks later. As for the experimental part:
(§2) Heart was extirpated after thoracotomy (auricle should be reserved), the heart weight was measured after dried with absorbent paper, ratio of heart weight/body weight calculated; outer diameter of the heart was measured at ½ site of the vertically standing heart; medium part of the left ventricle was crosswise cut open, maximal thickness of free wall of the left ventricle measured; the heart was fixed with 10% formaldehyde, paraffin embedded and HE stained, observation of the myocardial structure carried out under optic microscope, give out pathologic score.
Scoring could be performed between grade 1 and grade 2 or between grade 2 and grade 3, e.g. grade 1.5, grade 2.5 etc. 6.3.3.3 Determination of Hemodynamics Index

Data set [4] shares this test system. Put plainly: Hemodynamics index, Adriamycin rat model. It counts as in vivo, SD rat. The settings on record: 5 weeks later. Here is the method:
as §1
Hemodynamics index such as carotid artery pressure, intra-ventricular pressure. dp/dt was measured with six lead physiology recorder. Major procedure: separate the right carotid artery, ligate its distal end and block its proximal end with arterial clamps, 20 G arteriovenous indwelling needle was inserted into the carotid artery, took out the medal stylet, loosened the artery clamps, push the plastic trocar further into appropriate depth, indwelled for 10 minutes, observed the wave style recorded by the physiology recorder, after it was stable, then recorded the carotid artery pressure and push the trocar further into the left ventricle, kept in place for 15 minutes, after it was stable, then recorded the dp/dt, −dp/dt, LVPmax and LVPmin.

Data set [5] has the same test system. Put plainly: Heart size (heart weight/body weight, wall thickness), Adriamycin rat model. The settings on record: Adriamycin 3.3 mg/kg iv once every week × 4, 5 weeks later. It counts as in vivo, SD rat. As for the experimental part: as §2
Data set [6] relates to Rhesus. Put plainly: Rhesus long-term toxicity study, 3 weeks iv plus 3 weeks convalescence. The settings on record: for heart rate in conscious animals (electrocardiography): every drug taken group.
Setting [7] is: rat, Adriamycin 3.3 mg/kg iv once every week × 4.
The mark [8] stands for this setting: survived rat, Adriamycin 3.3 mg/kg iv weekly × 4.

Where “and” joins values, the source holds several entries; their conditions need not be identical. Equal values may be shown once.

Two molecules from US9555076B2, “Neuregulin based methods and compositions for treating cardiovascular diseases” (Zensun (Shanghai) Science & Technology, Co., Ltd., priority 2002, dated 2017) can be followed below.

`COc1cccc2c1C(=O)c1c(O)c3c(c(O)c1C2=O)C[C@@](O)(C(=O)CO)C[C@@H]3O[C@H]1C[C@H](N)[C@H](O)[C@H](C)O1` [Adriamycin, reference compound]: in data set [1], the cTnT is 0.2 ng/mL and 0.205 ± 0.072 ng/mL. In data set [2], this molecule had a survival rate of 15%. Besides, the relative morbidity rate in data set [3] amounted to 100%. In data set [4] (setting [7]), this molecule returned an LVPmax of 106.1 ± 21.2 mmHg and a dp/dt of 2674 ± 446 mmHg/s. For the same molecule, the LVPmin in data set [4] (rat, Adriamycin 3.3 mg/kg iv once every week × 4, in mmHg) is listed as −10.0 ± 4.7. Also, the “−dp/dt” value in data set [4] (rat, Adriamycin 3.3 mg/kg iv once every week × 4, in mmHg/s) is −2141 ± 596. Moreover, in data set [4] (setting [8]), the “LVPmax as % of the normal value” was 58%, the “LVPmin as % of the normal value” is 37%, the “dp/dt as % of the normal value” is on record as 43% and the “−dp/dt as % of the normal value” is 47%. Moreover, in data set [5], the Heart weight/body weight was 0.0031 ± 0.0001^, the heart circumference is reported as 30.6 ± 0.1 mm and the “thickness of left ventricular wall” value is 1.73 ± 0.16^ mm.

B1: rhNRG-1 β: Recombinant human neuregulin fragment of 61 amino acid (SEQ ID NO:4), 3 disulfide bonds, expressed in E. coli (protein, listed as Homo sapiens)
chain: SHLVKCAEKEKTFCVNGGECFMVKDLSNPSRYLCKCPNEFTGDRCQNYVMASFYKAEELYQ
modifications: Human neuregulin beta-2 fragment
For the molecule B1, in data set [6] (7.5, 15, 75 μg/kg/d iv 3 weeks), the bone marrow smear result is listed as “No significant toxic pathologic changes”; the echocardiogram result was “no significant abnormality in echocardiogram”; the fundus examination result was “No abnormal changes”; the “hematological, biochemistry examination, urine and fecal testing” value is listed as “no significant toxicological changes”. Further, the organ weight entry in data set [6] (7.5, 15, 75 μg/kg/d iv 3 weeks) is recorded as “No abnormal changes in organ weight”. In data set [6] (all animals, prior to and after the drug administration), the body temperature result is “no significant changes of body temperature”. Further, the “site of drug injection” value in data set [6] (drug taken groups) is “mild paleness, hardening of regional skin and vessels”. For the same molecule, the “general symptoms, gastrointestinal” value in data set [6] (each drug taken group, 1 week after the beginning of drug administration) is “Vomiting, nausea and salivation occurred in part of the animals”. For the same molecule, the “heart rate in conscious animals (electrocardiography)” value in data set [6] (3-week of drug administration) was “significant reduction of heart rate”. In addition, the “heart rate in conscious animals (electrocardiography)” value in data set [6] (10-day of drug administration) is given as “no significant deceleration of heart rate”. Further, in data set [6] (high dosage 75 μg/kg/d iv 3 weeks), the myocardium pathohistology result is given as “could cause vacuole in the cytoplasma of myocardium”. Also, the food ingestion result in data set [6] (high dosage group 75 μg/kg/d) is on record as “reduced significantly”. Also, in data set [6] (high dosage group 75 μg/kg/d, self-comparison prior to and after drug), the body weight result is reported as “lowered markedly”. Further, the recovery of hydrocephalus result in data set [6] (high dosage group, 3 weeks after drug withdrawal) was “did not recover entirely”. For the same molecule, the “dosage level that did not cause pericardial effusion and hydrocephalus” value in data set [6] (iv daily 3 weeks, 3-week's convalescent period) turned out to be 7.5 µg/kg/day.
